From patent US20250026792A1, “SELF-ASSEMBLING PEPTIDES WITH HYALURONIC ACID BINDING DOMAINS AND METHODS OF USE THEREOF” (Northwestern University, priority 2022, published 2025)
“Also recorded” adds a separate entry of the source. Where a SMILES comes first, the peptide text is derived from it. The star is where a group is joined. Biotin = O=C1N[C@H]2[C@H](CS[C@H]2CCCCC(=O)*)N1

T1: elastin (bovine) (bovine, UniProt P04985 27-747, limits assumed)
T1 construct: Coated and dried on plates at 10 ug/cm2
T1 sequence (looked up): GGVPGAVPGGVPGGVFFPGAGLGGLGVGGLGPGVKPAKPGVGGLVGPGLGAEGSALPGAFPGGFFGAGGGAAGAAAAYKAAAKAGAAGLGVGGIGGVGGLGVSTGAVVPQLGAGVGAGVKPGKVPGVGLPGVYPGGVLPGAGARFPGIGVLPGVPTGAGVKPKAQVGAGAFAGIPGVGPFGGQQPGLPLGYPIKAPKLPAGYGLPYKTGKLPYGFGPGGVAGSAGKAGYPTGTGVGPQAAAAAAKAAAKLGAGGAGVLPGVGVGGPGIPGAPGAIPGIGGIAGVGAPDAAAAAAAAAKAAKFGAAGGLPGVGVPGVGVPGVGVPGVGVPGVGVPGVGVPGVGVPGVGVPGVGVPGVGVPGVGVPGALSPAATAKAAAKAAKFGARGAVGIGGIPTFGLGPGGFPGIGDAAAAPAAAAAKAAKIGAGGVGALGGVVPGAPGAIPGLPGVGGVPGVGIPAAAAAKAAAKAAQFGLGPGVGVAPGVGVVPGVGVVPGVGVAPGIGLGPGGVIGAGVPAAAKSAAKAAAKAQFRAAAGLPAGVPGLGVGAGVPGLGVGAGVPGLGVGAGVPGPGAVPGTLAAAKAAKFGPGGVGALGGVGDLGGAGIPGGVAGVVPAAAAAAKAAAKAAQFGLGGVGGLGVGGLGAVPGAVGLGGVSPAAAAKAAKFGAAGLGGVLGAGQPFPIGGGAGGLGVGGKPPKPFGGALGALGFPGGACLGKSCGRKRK

B1: Peptide 4 (peptide)
peptide: Biotin-LKTKIKIIVKTKSSAKLRSKLVNSHKI-OH
SMILES: CC[C@H](C)[C@H](NC(=O)[C@H](CCCCN)NC(=O)[C@H](Cc1c[nH]cn1)NC(=O)[C@H](CO)NC(=O)[C@H](CC(N)=O)NC(=O)[C@@H](NC(=O)[C@H](CC(C)C)NC(=O)[C@H](CCCCN)NC(=O)[C@H](CO)NC(=O)[C@H](CCCNC(=N)N)NC(=O)[C@H](CC(C)C)NC(=O)[C@H](CCCCN)NC(=O)[C@H](C)NC(=O)[C@H](CO)NC(=O)[C@H](CO)NC(=O)[C@H](CCCCN)NC(=O)[C@@H](NC(=O)[C@H](CCCCN)NC(=O)[C@@H](NC(=O)[C@@H](NC(=O)[C@@H](NC(=O)[C@H](CCCCN)NC(=O)[C@@H](NC(=O)[C@H](CCCCN)NC(=O)[C@@H](NC(=O)[C@H](CCCCN)NC(=O)[C@H](CC(C)C)NC(=O)CCCC[C@@H]1SC[C@@H]2NC(=O)N[C@@H]21)[C@@H](C)O)[C@@H](C)CC)[C@@H](C)CC)[C@@H](C)CC)C(C)C)[C@@H](C)O)C(C)C)C(=O)O
notes: Variant of peptide 8h-2; biotinylated synthetic peptide

Key:
[1] = Transmission electron microscopy (TEM) of peptide nanostructures; format: physicochemical; conditions: for TEM characterization, Sodium Cacodylate Buffer (ii): 20 mM sodium cacodylate pH 7.4, 0.5% w/v; for TEM characterization, Sodium Cacodylate Buffer (ii) / TEM characterization, Phosphate Buffered Saline (i): 30 minutes sonication, 24 hrs at 37° C.; for TEM characterization, Phosphate Buffered Saline (i): PBS pH 7.4, 0.5% w/v
Description: The sample and stain were filter-dried in between steps. Samples were collected 24 hours at 37° C. after 30 minutes of sonication. All TEM was performed on a Philips FEI Technai Spirit G2 electron microscope. Peptides were incubated in both PBS and SC.

[2] = Circular dichroism (CD) of peptides; format: physicochemical; conditions: 20 mM Sodium Cacodylate; for Ellipticity ratio (222 nm/208 nm) / Ellipticity 208 nm / Ellipticity 222 nm: 1.25 mg/mL; for Ellipticity 208 nm / Ellipticity 222 nm: CD data given as [θ]M×10^−3; for wavelength Minimum of CD profile: 5.0 mg/mL
Description: Data is presented in ellipticity ([θ]M×10^−3) as a function of spectral wavelength (λ).
Sodium cacodylate (SC), 20 mM pH 7.4, without and with 20% TFE was used to reduce phosphate related background signal and enhance detected structures. Circular dichroism (CD) data were collected in millidegrees, 0, and converted to molar ellipticity, [θ]M, and are expressed in units of deg×cm^2×dmol^−1. Scan speeds and digital integration times were 500 nm/min and 1 second, respectively. The data on the Y axis of the CD plots is [θ]M×10^−3. […] Consequently, CD signals are reported in the 190-260 nm range.

[3] = Concentration-dependent peptide binding to hyaluronic acid coating (biotin-streptavidin fluorescence); conditions: for binding to hyaluronic acid with increasing concentrations of peptide (fluorescence intensity): 0-10 mg/ml peptide, PBS pH 7.4, 37° C., HA coating 10 μg/cm^2, FIG. 3; for HA binding, overall assessment: summary and discussion statements
Description: (§1) Peptides were incubated 24 hours at 37° C. Coatings (10 μg/cm^2) were previously dried overnight in milli-Q water. Overall significance was assessed using analysis of variance, with Tukey's multiple comparison post-hoc analysis between 1-scrm and experimental groups where n=4.
N-termini biotinylated peptides were added to coated plates at 0, 1, 2.5, 5 and 10 mg/ml overnight at 37° C. in phosphate buffered saline (PBS), pH 7.4, after which the plates were washed three times with PBS.

[4] = tested on: extracellular matrix (ECM) components: Collagen type I, II, III and IV, elastin, hyaluronic acid and Geltrex; experiment: ECM specificity binding test, whole panel; conditions: 5.0 mg/ml peptide, FIG. 4
Description: as §1, with “C. on collagens I-IV, elastin, hyaluronic acid, and Geltrex.” for “C.”, “pig/cm^2)” for “μg/cm^2)”, “ECM” for “1-scrm and experimental”
(§2) Hyaluronic acid, collagens I, II, III, and IV, elastin, and Geltrex were coated onto 96-well black plates (medium binding affinity) at 10 μg/cm^2 and were dried in milli-Q water at room temperature. N-termini biotinylated peptides were added to coated plates at 0, 1, 2.5, 5 and 10 mg/ml overnight at 37° C. in phosphate buffered saline (PBS), pH 7.4, after which the plates were washed three times with PBS. Fluorescent streptavidin-488 (4 μg/mL) was added to each well and incubated at 37° C. temperature for 24 hours, then thoroughly washed with PBS. The plates were read with a fluorescence microplate reader for fluorescence intensity (Ex 490 nm, Em 525 nm). All data were normalized to the background fluorescence intensity of Streptavidin-488.

[5] = molecular target: T1, elastin (bovine); experiment: plate assay: biotinylated peptide (5.0 mg/ml) on dried ECM coating, streptavidin-488 fluorescence
Description: as §1, with “C. on collagens I-IV, elastin, hyaluronic acid, and Geltrex.” for “C.”, “pig/cm²)” for “μg/cm^2)”, “ECM” for “1-scrm and experimental”
as §2, with “N-termini” for “Hyaluronic acid, collagens I, II, III, and IV, elastin, and Geltrex were coated onto 96-well black plates (medium binding affinity) at 10 μg/cm^2 and were dried in milli-Q water at room temperature. N-termini”

binding to hyaluronic acid ([3]; 10 mg/ml peptide)	peptide concentrations at which increased binding to hyaluronic acid is shown ([3]; FIG. 3) [mg/mL]	binding to the ECMs (for 17x-3: the ECMs other than hyaluronic acid) [4]	binding result [5]	Molecule	TEM characterization, Sodium Cacodylate Buffer (ii) [1]	Ellipticity ratio (222 nm/208 nm) [2]	Ellipticity 208 nm [2]	Ellipticity 222 nm [2]	wavelength Minimum of CD profile [2]	Ellipticity ratio (222 nm/208 nm) ([2]; 20% TFE)	Ellipticity 208 nm ([2]; 20% TFE)	Ellipticity 222 nm ([2]; 20% TFE)	wavelength Minimum of CD profile ([2]; 20% TFE)	TEM characterization, Phosphate Buffered Saline (i) [1]	binding to hyaluronic acid with increasing concentrations of peptide (fluorescence intensity) [3]	HA binding, overall assessment [3]	nanofiber formation in TEM, overall ([1]; both PBS and sodium cacodylate)
				CC[C@H](C)[C@H](NC(=O)[C@H](CCCCN)NC(=O)[C@H](CCC(N)=O)NC(=O)[C@H](CCCCN)NC(=O)[C@H](CC(C)C)NC(=O)CCCC[C@@H]1SC[C@@H]2NC(=O)N[C@@H]21)C(=O)N[C@@H](CCCCN)C(=O)N[C@@H](Cc1c[nH]cn1)C(=O)N[C@H](C(=O)N[C@H](C(=O)N[C@@H](CCCCN)C(=O)N[C@@H](CC(C)C)C(=O)N[C@@H](CCCCN)C(=O)N[C@H](C(=O)N[C@H](C(=O)N[C@H](C(=O)N[C@@H](CCCCN)C(=O)N[C@@H](CC(C)C)C(=O)N[C@@H](CCCNC(=N)N)C(=O)N[C@@H](CO)C(=O)N[C@@H](CCC(N)=O)C(=O)N[C@@H](CC(C)C)C(=O)N[C@H](C(=O)N[C@@H](CCCCN)C(=O)N[C@@H](CCCNC(=N)N)C(=O)N[C@@H](CCCCN)C(=O)N[C@@H](CCC(N)=O)C(=O)N[C@@H](CC(N)=O)C(=O)O)C(C)C)C(C)C)C(C)C)C(C)C)C(C)C)C(C)C [mPEP35, reference compound] (Biotin-LKQKIKHVVKLKVVVKLRSQLVKRKQN-OH)	no fibers or structure can be observed; also recorded: No structure or fibrils												
				ASNLTKAAKSLKVRVIKKTKQKQVLKVL [2nd de novo, five B(X7)B domains]		0.42	−115	−48.5	224-225 nm	0.90	−371	−333	221-222 nm	Structure, but no discernible striations			
				TKSKIKIVVKSKAKKLRLALVKRIKI [Peptide 6f-2, modification of mPEP35]		0.52	−97.6	−50.6	221 nm	0.84	−306	−257	221 nm	Structure, but no discernible striations	no different than the negative reference peptide		
				LKLKSSHSIKLKVKSKQRSALVSRQKA [Peptide 6b, mPEP35 variant]					227 nm	0.87	−229	−199	224 nm	Structure with striations			
bound significantly	10	did not show significant binding		TQLRNKYTFLARARNALAVRTKQNIKS [BHP3, designed from 42 residue peptide BH-P]		0.79	−88.4	−70.1	226 nm				226 nm	form fibers with many striations that form larger fibers and the larger fibers tend to form a mesh network	increases dramatically	HA specific and robust binders	consistent nanofibers; also recorded: predominantly form fibers with striations and furthermore form a mesh network
				TKTKIKIIVKLKSKAKLRIKLVKRHKS [Peptide 8h-2, modification of mPEP35]	No discernible structure.	0.42	−135	−57.3	224 nm	0.88	−283	−249	222-224 nm	No discernible structure.		proficient and specific binders	
				CC[C@H](C)[C@H](NC(=O)[C@H](CC(C)C)NC(=O)[C@H](CC(N)=O)NC(=O)[C@H](CC(C)C)NC(=O)[C@H](CCC(N)=O)NC(=O)[C@H](CC(C)C)NC(=O)[C@H](CCC(N)=O)NC(=O)[C@H](CC(C)C)NC(=O)[C@H](CCCCN)NC(=O)[C@H](CCCCN)NC(=O)[C@H](CCCCN)NC(=O)[C@H](CCCCN)NC(=O)[C@H](CCCCN)NC(=O)CCCC[C@@H]1SC[C@@H]2NC(=O)N[C@@H]21)C(=O)N[C@@H](CCCCN)C(=O)N[C@@H](CCCCN)C(=O)N[C@@H](CCCCN)C(=O)N[C@H](C(=O)N[C@@H](CCC(N)=O)C(=O)N[C@H](C(=O)N[C@@H](CO)C(=O)N[C@H](C(=O)N[C@H](C(=O)N[C@H](C(=O)N[C@H](C(=O)N[C@@H](CCCNC(=N)N)C(=O)N[C@@H](CCCNC(=N)N)C(=O)N[C@@H](Cc1c[nH]cn1)C(=O)O)C(C)C)C(C)C)C(C)C)C(C)C)C(C)C)C(C)C [Peptide 1-scrm, reference compound] (Biotin-KKKKKLQLQLNLIKKKVQVSVVVVRRH-OH)	No structure or fibrils												
			binds	B1													
